{
  "source": "patent US20140141002A1",
  "about": "(UNIVERSITY OF NORTH CAROLINA AT CHAPEL HILL, published 2014)",
  "molecules": {"B1": {"name": "integrin associated protein (IAP), endogenous in porcine aortic smooth muscle cells (receptor, UniProt Q9GKE8 19-303, looked up)", "chain": "QLIFNITKSVEFTVCNTTVTIPCFVNNMEAKNISELYVKWKFKGKDIFIFDGAQHISKPSEAFPSSKISPSELLHGIASLKMDKRDAVIGNYTCEVTELSREGETIIELKRRFVSWFSPNENILIVIFPILAILLFWGQFGILTLKYKSSYTKEKTIFLLVAGLMLTIIVIVGAILFIPGEYSTKNACGLGLIVIPTAILILLQYCVFMMALGMSSFTIAILILQVLGHVLSVVGLSLCVSECTPVHGPLLISGLGIIALAELLGLVYMKCVASDHKTIQPPRNN"}, "B2": {"name": "anti IAP monoclonal antibody B6H12 (antibody, from another filing)", "scFv": "EVQLVESGGDLVKPGGSLKLSCAASGFTFSGYGMSWVRQTPDKRLEWVATITSGGTYTYYPDSVKGRFTISRDNAKNTLYLQIDSLKSEDTAIYFCARSLAGNAMDYWGQGTSVTVSSGGGGSGGGGSGGGGSDIVMTQSPATLSVTPGDRVSLSCRASQTISDYLHWYQQKSHESPRLLIKFASQSISGIPSRFSGSGSGSDFTLSINSVEPEDVGVYYCQNGHGFPRTFGGGTKLEIKEQKLISEEDL"}},
  "key": {"[1]": {"biological_target": "Src homology 2 domain containing protein tyrosine phosphatase substrate 1 (SHPS-1), endogenous in porcine aortic smooth muscle cells (porcine) (UniProt F1S887)", "experiment": "SHPS-1 immunoprecipitated from transfected pSMCs, immunoblot for FLAG, densitometry"}, "[2]": {"biological_target": "T1, Src homology 2 domain containing protein tyrosine phosphatase substrate 1 (SHPS-1), endogenous in porcine … (porcine, UniProt F1S887 31-509)", "T1 sequence": "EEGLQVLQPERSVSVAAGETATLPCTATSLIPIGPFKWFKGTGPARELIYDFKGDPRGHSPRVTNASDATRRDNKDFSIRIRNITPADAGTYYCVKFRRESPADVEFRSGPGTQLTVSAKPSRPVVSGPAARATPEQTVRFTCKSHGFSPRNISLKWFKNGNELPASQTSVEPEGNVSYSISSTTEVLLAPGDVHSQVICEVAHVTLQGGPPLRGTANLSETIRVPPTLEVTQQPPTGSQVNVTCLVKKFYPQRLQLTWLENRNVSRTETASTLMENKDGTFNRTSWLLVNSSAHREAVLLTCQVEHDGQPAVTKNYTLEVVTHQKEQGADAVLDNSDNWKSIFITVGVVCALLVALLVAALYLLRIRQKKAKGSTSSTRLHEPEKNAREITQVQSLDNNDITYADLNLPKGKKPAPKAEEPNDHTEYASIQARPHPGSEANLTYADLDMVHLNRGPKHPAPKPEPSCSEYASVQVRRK", "experiment": "cell-based or functional assay"}, "[3]": {"biological_target": "T2, integrin associated protein (IAP), endogenous in porcine aortic smooth muscle cells (porcine) (UniProt Q9GKE8)", "T2 sequence (looked up)": "B1 chain", "experiment": "pSMCs incubated 2 h with B6H12 (4 ug/ml); SHPS-1 immunoprecipitated, immunoblot for IAP, densitometry"}},
  "data": [
    {"molecule": "IAP with truncation of extracellular domain at residue 135 and containing a C-terminal FLAG epitope (IAPcyto) (from UniProt Q9GKE8 135-303) (receptor)", "values": [
      {"measurement": "% reduction in IAP association with SHPS-1 compared with cells expressing IAP fl", "setting": "[1]", "result": 88, "unit": "%"}
    ]},
    {"molecule": "B1", "values": [
      {"measurement": "IGF-1 stimulated cell proliferation, cells incubated with B6H12", "setting": "[2]", "result": 1.03, "unit": "fold"},
      {"measurement": "IGF-1 stimulated increase in SHPS-1 phosphorylation, cells pretreated with B6H12", "setting": "[2]", "result": 0.93, "unit": "fold"},
      {"measurement": "fold increase in SHPS-1 phosphorylation in response to IGF-1, control cells (no antibody)", "setting": "[2]", "result": 4.1, "unit": "fold"},
      {"measurement": "fold increase in cell proliferation with IGF-1, no antibody", "setting": "[2]", "result": 2.2, "unit": "fold"}
    ]},
    {"molecule": "B2", "values": [
      {"measurement": "% reduction of the interaction between IAP and SHPS-1", "setting": "[3]", "result": 75, "unit": "%"}
    ]}
  ]
}
